Laboratory results from publication PMC3172333.
Read-outs that look alike come from different tables or passages of the source.

Assays:
[1] = target: cross-linked Aα221-610 oligomers (factor XIIIa cross-linked) (human); test: SPR
[2] = target: recombinant Aα221-610 fragment corresponding to the human fibrinogen αC region (non-cross-linked) (human); test: SEC
[3] = target: recombinant Aα221-610 fragment corresponding to the human fibrinogen αC region (non-cross-linked) (human); test: SEC; remark: listed apart in the source
[4] = target: recombinant Aα221-610 fragment corresponding to the human fibrinogen αC region (non-cross-linked) (human); test: SEC; remark: listed apart in the source
[5] = target: recombinant Aα221-610 fragment corresponding to the human fibrinogen αC region (non-cross-linked) (human); test: SEC; remark: listed apart in the source
[6] = target: recombinant Aα221-610 fragment corresponding to the human fibrinogen αC region (non-cross-linked) (human); test: SEC; remark: listed apart in the source

Kd [1] [nM] | percent monomer [2] [%] | percent oligomers [2] [%] | percent oligomers (after overnight incubation) [2] [%] | percent oligomers (immediately after dilution) [2] [%] | percent oligomers [3] [%] | percent oligomers [4] [%] | percent monomer [5] [%] | percent oligomers [6] [%] | Substance
458 |  |  |  |  |  |  |  |  | human Glu-plasminogen (natural protein)
 | 60 | 5 | 11 | 18 | 22 | 60 | 10 | 15 | recombinant Aα221-610 fragment corresponding to the human fibrinogen αC region (non-cross-linked) (domain or fragment)
440 |  |  |  |  |  |  |  |  | recombinant single-chain tissue type plasminogen activator (enzyme)
